Biological target: [Lys]plasminogen (human)
Assay: kinetics of conformational plasminogen activation

Substance: streptokinase ALAB49 SK2b variant with Tyr4 substituted by Pro (natural protein)
- Kd: 600 nM
